Here are results for 3 molecules from patent publication US20180230232A1 (VIB VZW, published 2018).

Experiment [1] deals with T1, mouse BACE1 (mouse, UniProt P56818 46-457, limits assumed). As to the kind of experiment: SPR (Biacore), pH 4.5. Background: In SPR one partner is held on a chip, and binding of the other changes the refractive index at the surface.
In experiment [2] the target is recombinant BACE1 of the cell-free enzymatic assays (FRET assay, MBP-ELISA) (human, UniProt P56817 46-460, limits assumed). As to the kind of experiment: cell-based or functional assay.
Chain of recombinant BACE1 of the cell-free enzymatic assays (FRET assay, MBP-ELISA) (P56817 46-460 limits assumed): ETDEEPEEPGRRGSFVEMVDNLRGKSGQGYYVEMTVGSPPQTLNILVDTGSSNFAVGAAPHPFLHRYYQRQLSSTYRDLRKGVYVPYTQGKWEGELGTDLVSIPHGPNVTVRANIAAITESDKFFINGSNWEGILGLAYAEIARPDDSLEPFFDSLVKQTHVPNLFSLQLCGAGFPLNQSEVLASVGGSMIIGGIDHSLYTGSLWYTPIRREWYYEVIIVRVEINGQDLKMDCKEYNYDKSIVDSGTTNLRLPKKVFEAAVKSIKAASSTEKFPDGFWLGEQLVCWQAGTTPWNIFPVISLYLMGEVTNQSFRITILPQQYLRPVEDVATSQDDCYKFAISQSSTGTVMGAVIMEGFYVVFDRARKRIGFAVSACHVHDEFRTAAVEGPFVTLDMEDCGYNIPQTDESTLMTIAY
Experiment [3] has as its target BACE1 of primary cultured mouse neurons (mouse, UniProt P56818 46-501). As to the kind of experiment: cell-based or functional assay.
The target of experiment [4] is T1, mouse BACE1. As to the kind of experiment: SPR (Biacore), pH 7.0.
The target in experiment [5] is T2, human BACE1 ectodomain (human, UniProt P56817 22-457).
T2 construct: extracellular domain; also called the ectodomain of human BACE1
T2 sequence (P56817 22-457): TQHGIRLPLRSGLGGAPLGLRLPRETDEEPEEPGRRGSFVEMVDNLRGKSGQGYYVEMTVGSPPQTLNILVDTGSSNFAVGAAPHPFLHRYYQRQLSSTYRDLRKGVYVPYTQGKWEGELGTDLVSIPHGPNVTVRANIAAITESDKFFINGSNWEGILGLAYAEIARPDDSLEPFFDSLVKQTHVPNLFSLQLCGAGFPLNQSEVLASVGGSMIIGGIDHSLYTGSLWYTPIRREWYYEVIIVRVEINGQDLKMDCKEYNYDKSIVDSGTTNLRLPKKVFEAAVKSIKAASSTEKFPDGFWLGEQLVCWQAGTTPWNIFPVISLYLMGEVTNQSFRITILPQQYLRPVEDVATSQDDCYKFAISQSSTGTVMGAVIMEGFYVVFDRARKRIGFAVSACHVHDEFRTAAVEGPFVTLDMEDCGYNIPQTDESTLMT
As to the kind of experiment: SPR (Biacore), pH 4.5.

In experiment [6] the target is T2, human BACE1 ectodomain. As to the kind of experiment: SPR (Biacore), pH 7.0.

T1 sequence (P56818 46-457 limits assumed): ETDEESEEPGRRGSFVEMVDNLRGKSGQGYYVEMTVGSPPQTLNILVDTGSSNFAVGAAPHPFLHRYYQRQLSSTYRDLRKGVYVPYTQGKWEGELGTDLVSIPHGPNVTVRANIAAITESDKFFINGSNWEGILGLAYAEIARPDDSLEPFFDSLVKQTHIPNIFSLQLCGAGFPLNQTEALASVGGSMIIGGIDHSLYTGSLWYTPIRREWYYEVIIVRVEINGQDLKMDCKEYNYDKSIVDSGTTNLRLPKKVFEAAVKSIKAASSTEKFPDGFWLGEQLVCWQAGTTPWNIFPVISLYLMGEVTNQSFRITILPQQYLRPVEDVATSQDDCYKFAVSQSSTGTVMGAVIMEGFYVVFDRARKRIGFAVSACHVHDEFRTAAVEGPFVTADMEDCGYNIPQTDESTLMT
Chain of BACE1 of primary cultured mouse neurons (P56818 46-501): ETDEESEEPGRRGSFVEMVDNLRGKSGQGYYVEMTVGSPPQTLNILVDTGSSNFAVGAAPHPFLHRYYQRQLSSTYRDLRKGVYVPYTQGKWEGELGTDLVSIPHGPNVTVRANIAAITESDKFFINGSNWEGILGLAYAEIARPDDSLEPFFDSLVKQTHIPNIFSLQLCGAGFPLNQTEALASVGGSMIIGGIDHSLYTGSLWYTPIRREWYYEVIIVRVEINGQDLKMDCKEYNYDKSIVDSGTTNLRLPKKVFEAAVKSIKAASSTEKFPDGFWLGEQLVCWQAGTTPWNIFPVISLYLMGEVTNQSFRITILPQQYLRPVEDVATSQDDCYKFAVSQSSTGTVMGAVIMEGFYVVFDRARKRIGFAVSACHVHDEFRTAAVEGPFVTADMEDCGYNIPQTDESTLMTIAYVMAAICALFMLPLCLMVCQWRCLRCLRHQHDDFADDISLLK

B1: NANOBODY B9 (Nb_B9) (VHH)
VHH: DVQLQESGGGSVQAGGSLRLSCAASEYTYGYCSMGWYRQAPGKERELVSTITSDGSTSYVDSVKGRFTISQDNAKNTVYLQMNSLKPEDTAKYYCYTKTCANKLGAKFISWGQGTQVTVSS
notes: dromedary VHH; his-tagged from E. coli; HA-tagged periplasmic extract in the ELISA screen; also called VHH B9; not shown: C-terminal his6-tag (pHEN6)
Usually Kd stands for the concentration at which binding is half-saturated. One may read the koff as the first-order rate constant of dissociation. Read a low koff as a long-lived complex. Usually kon stands for a measure of how fast the partners come together. Low readings indicate slower complex formation, high ones faster complex formation. Consider B1, for which the Kd in experiment [1] worked out at 1.11 nM; in experiment [4], 1.77 nM; in experiment [5], 1.96 nM; in experiment [6] it was 3.67 nM. Besides, the off-rate constant (koff) in experiment [1] was found to be 0.00118 s⁻¹; in experiment [4] it was 0.00089 s⁻¹; in experiment [5] it was 0.0013 s⁻¹; in experiment [6], 0.00098 s⁻¹. For the same molecule, the kon in experiment [1] was determined as 1.06e+06 M⁻¹ s⁻¹; in experiment [4], 502000 M⁻¹ s⁻¹; in experiment [5], 662000 M⁻¹ s⁻¹; in experiment [6] it was 267000 M⁻¹ s⁻¹. Besides, the “EC50, FRET assay dose-response” value in experiment [2] was found to be 4.1 nM. Also, the “IC50 (CTFβ level) in the neuron assay” value in experiment [3] is approximately 500 nM.

B2: NANOBODY 10C4 (Nb_10C4) (VHH)
VHH: QVQLQESGGGSVQAGGFLRLSCAASGYTYSTCSMAWYRQAPGKERELVSSIRNDGSTAYADSVKGRFTISQDNAKNTVYLQMNSLKPEDTAMYYCNIRIGVGPGGTCSIYAPYWGEGTQVTVSS
notes: from the dromedary libraries; purified from pHEN6; not shown: C-terminal his6-tag (pHEN6)
For B2, the Kd in experiment [1] stood at 10 nM; in experiment [4], 41.9 nM; in experiment [5], 27.7 nM; in experiment [6], 74.7 nM. The koff in experiment [1] is 0.00988 s⁻¹; in experiment [4] it was 0.00797 s⁻¹; in experiment [5], 0.0125 s⁻¹; in experiment [6], 0.00792 s⁻¹. The kon amounted to 984000 M⁻¹ s⁻¹ in experiment [1], 190000 M⁻¹ s⁻¹ in experiment [4], 451000 M⁻¹ s⁻¹ in experiment [5] and 106000 M⁻¹ s⁻¹ in experiment [6]. Moreover, the “IC50, FRET assay dose-response” value in experiment [2] is 150 nM.

B3: NANOBODY 4A2 (Nb_4A2) (VHH)
VHH: QVQLQESGGGLVQPGGSLRLSCAASGFTFETQYMTWVRQAPGKGPEYVSSINSGGTIKYYANSSVKGRFTISRDNAKNTLYLQMNNLRPEDTAIYYCQLGQWAGVGAASSRGQGTQVTVSS
notes: from the llama library; purified from pHEN6; not shown: C-terminal his6-tag (pHEN6)
For the molecule B3, the Kd worked out at 8.61 nM in experiment [1], 35.2 nM in experiment [4], 21.2 nM in experiment [5] and 48.2 nM in experiment [6]. Further, the koff came to 0.00216 s⁻¹ in experiment [1], 0.00581 s⁻¹ in experiment [4], 0.00841 s⁻¹ in experiment [5] and 0.0231 s⁻¹ in experiment [6]. The kon in experiment [1] is 251000 M⁻¹ s⁻¹; in experiment [4] it was 165000 M⁻¹ s⁻¹; in experiment [5], 397000 M⁻¹ s⁻¹; in experiment [6], 479000 M⁻¹ s⁻¹. Besides, in experiment [2], the “IC50, FRET assay dose-response” value is 1200 nM.
